Measurements: patent US20150203577A1 (Chugai, published 2015)
Changes are numbered by the printed parent chain.

T1: mouse FcγRIII (mouse, UniProt P08508 31-215)
T1 construct: Extracellular domain with C-terminal His tag; also called mFcγRIII; mFcgRIII
T1 chain: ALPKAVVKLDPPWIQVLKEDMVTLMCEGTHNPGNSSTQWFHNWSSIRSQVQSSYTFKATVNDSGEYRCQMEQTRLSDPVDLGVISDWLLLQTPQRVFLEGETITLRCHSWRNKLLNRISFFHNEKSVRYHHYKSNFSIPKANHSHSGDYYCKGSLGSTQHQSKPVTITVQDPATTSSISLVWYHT

T2: mouse FcγRII (mouse, UniProt P08101 30-210)
T2 construct: Extracellular domain with C-terminal His tag; also called mFcγRII; mFcgRII
T2 sequence: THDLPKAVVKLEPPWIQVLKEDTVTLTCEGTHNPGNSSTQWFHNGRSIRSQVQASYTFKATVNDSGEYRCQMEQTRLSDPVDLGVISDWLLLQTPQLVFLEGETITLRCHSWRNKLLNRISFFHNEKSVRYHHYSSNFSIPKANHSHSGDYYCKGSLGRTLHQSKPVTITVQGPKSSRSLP

T3: mouse FcγRIII (mouse, UniProt P08508 31-215)
T3 construct: also called mFcγRIII; mFcgRIII
T3 chain: T1 chain

T4: mouse FcγRII extracellular domain with C-terminal His tag (mouse, UniProt P08101 30-210)
T4 construct: Made on the basis of NCBI NP-034317.1; also called mFcγRII; mFcgRII
T4 sequence: T2 sequence

T5: mouse FcγRIII extracellular domain with C-terminal His tag (mouse, UniProt P08508 31-215)
T5 construct: Made on the basis of NCBI NP-034318.2; also called mFcγRIII; mFcgRIII
T5 chain: T1 chain

B1: MB750 (antibody, mouse IgG1, kappa)
heavy: QVQLQESGPGLVKPSETLSLTCAVSGHSISHDHAWSWVRQPPGEGLEWIGFISYSGITNYNPSLQGRVTISRDNSKNTLYLQMNSLRAEDTAVYYCARSLARTTAMDYWGEGTLVTVSSAKTTPPSVYPLAPGSAAQTNSMVTLGCLVKGYFPEPVTVTWNSGSLSSGVHTFPAVLQSDLYTLSSSVTVPSSTWPSETVTCNVAHPASSTKVDKKIVPRDCGCKPCICEPNEVELVFIFPPKPKDVLTITLTPKVTCVVVDISKDDPEVQFSWFVDDVEVHTAQTQPREEQFNSTFRSVSELPIMHQDWLNGKEFKCRVNSDAFPAPIEKTISKTKGRPKAPQVYTIPPPKEQMAKDKVSLTCMITDFFPEDITVEWQWNGQPAENYKNTQPIMDTDGSYFVYSKLNVQKSNWEAGNTFTCSVLHEGLHNHHTEKSLSHSPGK
light: not shown
notes: CH name; VH H237 + CH, L chain MRAL-k0; copies: 2 + 2
B2: MB752 (antibody, mouse IgG1, kappa)
heavy: B1 heavy with S294L, D322A
light: not shown
notes: as for B1
B3: MB762 (antibody, mouse IgG1, kappa)
heavy: B1 heavy with F292E, D322A
light: not shown
notes: as for B1
B4: MB759 (antibody, mouse IgG1, kappa)
heavy: B1 heavy with N320D, D322A, K330R
light: not shown
notes: as for B1
B5: MB761 (antibody, mouse IgG1, kappa)
heavy: B1 heavy with S294M, N320D, D322A, K330R
light: not shown
notes: as for B1
B6: MB758 (antibody, mouse IgG1, kappa)
heavy: B1 heavy with S294M, D322A, K330R
light: not shown
notes: as for B1
B7: MB754 (antibody, mouse IgG1, kappa)
heavy: B1 heavy with N320D, D322A
light: not shown
notes: as for B1
B8: MB748 (antibody, mouse IgG1, kappa)
heavy: B1 heavy with S263A, D322A
light: not shown
notes: as for B1
B9: MB760 (antibody, mouse IgG1, kappa)
heavy: B1 heavy with S294L, N320D, D322A, K330R
light: not shown
notes: as for B1
B10: MB753 (antibody, mouse IgG1, kappa)
heavy: B1 heavy with S294M, D322A
light: not shown
notes: as for B1
B11: MB751 (antibody, mouse IgG1, kappa)
heavy: B1 heavy with D322A, K330R
light: not shown
notes: as for B1
B12: MB763 (antibody, mouse IgG1, kappa)
heavy: B1 heavy with F292N, D322A
light: not shown
notes: as for B1
B13: MB757 (antibody, mouse IgG1, kappa)
heavy: B1 heavy with S294M, N320D, D322A
light: not shown
notes: as for B1
B14: MB749 (antibody, mouse IgG1, kappa)
heavy: B1 heavy with Q291L, D322A
light: not shown
notes: as for B1
B15: MB756 (antibody, mouse IgG1, kappa)
heavy: B1 heavy with S294L, D322A, K330R
light: not shown
notes: as for B1
B16: MB755 (antibody, mouse IgG1, kappa)
heavy: B1 heavy with S294L, N320D, D322A
light: not shown
notes: as for B1
B17: H237-MB642/MRAL-k0 (antibody, mouse IgG1, kappa)
heavy: B1 heavy with P230D, N231Y, L235Y, D322A
light: not shown
notes: mouse IgG1 CH variant; copies: 2 + 2
B18: H237-MB657/MRAL-k0 (antibody, mouse IgG1, kappa)
heavy: B1 heavy with L235F, D322A
light: not shown
notes: as for B17
B19: H237-MB636/MRAL-k0 (antibody, mouse IgG1, kappa)
heavy: B1 heavy with P230V, N231Y, L235N, D322A
light: not shown
notes: as for B17
B20: H237-MB435/MRAL-k0 (antibody, mouse IgG1, kappa)
heavy: B1 heavy with E229I, P230T, N231Y, L235D, D322A
light: not shown
notes: copies: 2 + 2
B21: H237-MB437/MRAL-k0 (antibody, mouse IgG1, kappa)
heavy: B1 heavy with E229Q, P230T, N231Y, L235D, D322A
light: not shown
notes: copies: 2 + 2
B22: H237-MB438/MRAL-k0 (antibody, mouse IgG1, kappa)
heavy: B1 heavy with E229T, P230T, N231Y, L235D, D322A
light: not shown
notes: copies: 2 + 2
B23: H237-MB436/MRAL-k0 (antibody, mouse IgG1, kappa)
heavy: B1 heavy with E229P, P230T, N231Y, L235D, D322A
light: not shown
notes: copies: 2 + 2

Biological target: T1, mouse FcγRIII
Test: SPR (Biacore T200); KD of H237-MB630/MRAL-k0 / KD of variant
From the text: (§1) The antibody H chain variable region used was the variable region H237 (SEQ ID NO: 1) of the H chain VH3-IgG1 of the anti-IL-6 receptor antibody Fv4-IgG1 described in WO2009/125825. The antibody L chain commonly used was the L chain MRAL-k0 (SEQ ID NO: 2) of the anti-IL-6 receptor antibody tocilizumab. […] These variants were expressed and purified by the method of Reference Example 1 and evaluated for their binding to mFcγRII and mFcγRIII by the method of Reference Example 2 using Biacore T200.
(§2) Each altered antibody was analyzed for its interaction with each Fcγ receptor prepared above using Biacore T100 (GE Healthcare Japan Corp.), Biacore T200 (GE Healthcare Japan Corp.), Biacore A100, or Biacore 4000. The running buffer used was HBS-EP+ (GE Healthcare Japan Corp.). The assay temperature was set to 25° C. The sensor chips used were chips prepared by immobilizing Protein L (ACTIGEN or BioVision) onto Series S Sensor Chip CM5 (GE Healthcare Japan Corp.) or Series S Sensor Chip CM4 (GE Healthcare Japan Corp.) by the amine coupling method.
(§3) In order to calculate the KD value of each altered antibody for FcγR, kinetic analysis was conducted according to the following method: first, the antibody of interest was captured onto any of these chips and allowed to interact with mFcγR diluted with a running buffer. For the obtained sensorgram, the assay results were globally fit into the 1:1 Langmuir binding model using Biacore Evaluation Software to calculate an association rate constant ka (L/mol/s) and a dissociation rate constant kd (1/s). From these values, the dissociation constant KD (mol/L) was calculated.

Relative mFcγRIII-binding activity (MB630 = 1) [fold] | Binder
2.06 | B1
0.44 | B2
0.51 | B3
2.25 | B4
0.92 | B5
0.69 | B6
1.28 | B7
0.7 | B8
1.42 | B9
0.34 | B10
1.63 | B11
0.41 | B12
0.45 | B13
1.96 | B14
1.09 | B15
0.58 | B16

Biological target: T2, mouse FcγRII
Test: as above
From the text: as §1, §2, §3

Relative mFcγRII-binding activity (MB630 = 1) [fold] | Binder
1.77 | B1
0.36 | B2
0.4 | B3
2.03 | B4
0.81 | B5
0.59 | B6
1.26 | B7
0.7 | B8
0.85 | B9
0.34 | B10
1.53 | B11
0.31 | B12
0.46 | B13
1.52 | B14
0.64 | B15
0.45 | B16

Biological target: T3, mouse FcγRIII
Test: SPR (Biacore), antibody captured on Protein L, mFcγR as analyte
Protocol: as §2, §3

relative mFcγRIII-binding activity (mIgG1 = 1) [fold] | Binder
0.1 | B17
0.09 | B18
0.17 | B19

Biological target: T1, mouse FcγRIII
Test: SPR (Biacore T200); KD of H237-mIgG1/MRAL-k0 / KD of variant
From the text: as §1, §2

relative mFcγRIII-binding activity (mIgG1 = 1) [fold] | Binder
0.4 | B1
0.09 | B2
0.09 | B3
0.44 | B4
0.18 | B5
0.13 | B6
0.25 | B7
0.14 | B8
0.28 | B9
0.07 | B10
0.32 | B11
0.07 | B12
0.09 | B13
0.38 | B14
0.21 | B15
0.11 | B16

Biological target: T2, mouse FcγRII
Test: as above
From the text: as §1, §2

relative mFcγRII-binding activity (mIgG1 = 1) [fold] | Binder
29.4 | B1
6 | B2
4.4 | B3
33.8 | B4
13.4 | B5
9.8 | B6
21 | B7
11.7 | B8
14.1 | B9
5.7 | B10
25.4 | B11
3.4 | B12
7.6 | B13
25.3 | B14
10.6 | B15
7.6 | B16

Biological target: T4, mouse FcγRII extracellular domain with …
Test: SPR Biacore T200; KD mFcγRIII / KD mFcγRII

relative I/A (mFcγRII selectivity) (mIgG1 = 1) | I/A (mFcγRII selectivity) | Binder
16.8 |  | B20
17.3 |  | B21
18 | 24.1 | B22
18 |  | B23

Biological target: T4, mouse FcγRII extracellular domain with …
Test: SPR Biacore T200

relative mFcγRII-binding activity (mIgG1 = 1) | Kd [nM] | Binder
146 |  | B20
198 |  | B21
283 | 0.742 | B22
151 |  | B23

Biological target: T5, mouse FcγRIII extracellular domain with …
Test: SPR Biacore T200

relative mFcγRIII-binding activity (mIgG1 = 1) | Kd [nM] | Binder
8.7 |  | B20
11.5 |  | B21
15.7 | 17.9 | B22
8.4 |  | B23
